Measured values reported in patent publication US20220363757A1.

Legend:
[1] = target: human LAG-3 domain 1-2 Fc fusion, point mutation #51 G107A (human) (UniProt P18627); assay: SPR, Fab over captured mutant LAG-3-Fc
[2] = target: human LAG-3 domain 1-2 Fc fusion, point mutation #44 R97A (human) (UniProt P18627); assay: SPR, Fab over captured mutant LAG-3-Fc
[3] = target: cynomolgus LAG-3 ECD human IgG1 Fc fusion (cynomolgus; human) (UniProt P18627); assay: SPR, Fab over captured LAG-3 ECD-Fc
[4] = target: human LAG-3 ECD human IgG1 Fc fusion (human) (UniProt P18627); assay: SPR, Fab over captured LAG-3 ECD-Fc
human LAG-3 ECD human IgG1 Fc fusion (human), sequence (P18627 23-450): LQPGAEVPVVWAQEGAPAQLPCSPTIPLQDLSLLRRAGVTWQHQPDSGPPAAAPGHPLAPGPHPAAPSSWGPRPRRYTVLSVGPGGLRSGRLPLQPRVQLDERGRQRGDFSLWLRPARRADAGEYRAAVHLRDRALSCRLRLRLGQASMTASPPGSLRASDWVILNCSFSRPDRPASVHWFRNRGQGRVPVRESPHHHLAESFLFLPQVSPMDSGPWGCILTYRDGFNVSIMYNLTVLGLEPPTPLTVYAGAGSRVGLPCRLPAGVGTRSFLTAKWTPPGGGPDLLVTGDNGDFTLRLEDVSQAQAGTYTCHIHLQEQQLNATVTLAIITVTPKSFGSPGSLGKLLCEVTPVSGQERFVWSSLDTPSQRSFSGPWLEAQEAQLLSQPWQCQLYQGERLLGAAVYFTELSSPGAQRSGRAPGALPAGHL

cynomolgus LAG-3 ECD human IgG1 Fc fusion (cynomolgus; human), sequence (P18627 other isoform, or with tags, fused parts or gaps, form in doubt): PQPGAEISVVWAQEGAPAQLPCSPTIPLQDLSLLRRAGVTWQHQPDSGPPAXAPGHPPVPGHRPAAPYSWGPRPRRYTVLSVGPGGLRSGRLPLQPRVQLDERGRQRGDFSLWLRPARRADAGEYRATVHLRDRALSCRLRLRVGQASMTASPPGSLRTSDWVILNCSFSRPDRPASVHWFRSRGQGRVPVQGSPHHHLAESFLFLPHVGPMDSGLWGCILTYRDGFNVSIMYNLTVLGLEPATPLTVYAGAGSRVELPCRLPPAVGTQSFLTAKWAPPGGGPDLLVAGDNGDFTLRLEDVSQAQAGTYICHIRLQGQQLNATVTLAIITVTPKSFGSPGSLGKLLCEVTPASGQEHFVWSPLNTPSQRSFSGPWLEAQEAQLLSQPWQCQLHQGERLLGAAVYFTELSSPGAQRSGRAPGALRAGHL
human LAG-3 domain 1-2 Fc fusion, point mutation #44 R97A (human), sequence (P18627 23-266 R97A): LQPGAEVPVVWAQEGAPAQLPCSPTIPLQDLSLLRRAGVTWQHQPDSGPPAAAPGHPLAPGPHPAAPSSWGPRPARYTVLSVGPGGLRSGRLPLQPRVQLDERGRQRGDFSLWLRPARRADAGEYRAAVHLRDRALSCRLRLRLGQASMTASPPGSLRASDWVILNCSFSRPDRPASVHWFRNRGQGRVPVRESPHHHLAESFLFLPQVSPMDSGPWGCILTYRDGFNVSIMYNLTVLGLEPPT
human LAG-3 domain 1-2 Fc fusion, point mutation #51 G107A (human), sequence (P18627 23-266 G107A): as the sequence (P18627 23-266 R97A) above, with A75R, G85A counted along it

Fab fragment of 25F7-Lag3.5 analogue
KD mutant/KD wild type [1]: 0.8 fold | KD mutant/KD wild type [2]: 0.9 fold | Kd [3]: 910 nM | koff [3]: 0.0038 s⁻¹ | kon [3]: 4200 M⁻¹ s⁻¹ | Kd [4]: 8.5 nM | koff [4]: 0.0012 s⁻¹ | kon [4]: 140000 M⁻¹ s⁻¹
